Experimental data as given in US20170233480A1 (DEVELOPMENT CENTER FOR BIOTECHNOLOGY, published 2017).
Each block holds one binder with its values, some of them ahead of it.

Legend:
mouse VEGFR-2 = mouse VEGFR-2 (mouse, UniProt P35918 20-762); assay: ELISA, plate coated with mouse VEGFR-2, HRP-anti-human IgG, OD450-650; bar chart of two runs (1st, 2nd); antibody concentration not given
Description: (§1) An ELSA plate was coated with 100 μL per well of human VEGFR-2, mouse VEGFR2, human VEGFR1 or human VEGFR3 overnight at 4° C., and then rinsed 3 times with PBS and blocked with 300 μL per well of 5% MPBS for 2 hr at 37° C. The wells were rinsed 3 times with PBS, and 100 μL of anti-VEGFR2 antibody, 2 fold serial dilutions, was added and incubated for 90 min at 37° C. The test solution was discarded and washed 3 times with PBS. Appropriate dilution of HRP-anti-Human IgG antibody in 5% MPBS (1:10000) was added and incubated for 60 min at 37° C., and the wells were washed 3 times with PBS. The wells were developed with 100 μL of substrate solution TMB and the reactions were terminated by adding 50 μL of 1 M sulfuric acid. The color turned yellow and the OD at 650 nm and at 450 nm was assayed.

[1] = target: T1, human VEGFR-2 (domains 1 to 7) (human, UniProt P35968 20-764); assay: ELISA on VEGFR-2 D1-7 and point mutants mut.1 to mut.10, antibody titration 6.86E-05 to 0.15 ug/ml, OD450
T1 construct: The immunogen was VEGFR2-Fc-His and panning used VEGFR2-His; also called R2 D1-7; KDR

[2] = target: T1, human VEGFR-2 (domains 1 to 7); assay: kinetic analysis with Rmax in RU, VEGFR-2 (domains 1 to 7) as analyte; method not named
human VEGFR-1 = target: T2, human VEGFR-1 (human, UniProt P17948 27-758, limits assumed); assay: ELISA, plate coated with hVEGFR1 (0.1 µg/mL), antibody titration, OD450-650
T2 construct: also called flt-1
Description: as §1

human VEGFR-3 = target: T3, human VEGFR-3 (human, UniProt P35916 25-775, limits assumed); assay: ELISA, plate coated with hVEGFR3 (0.1 µg/mL), antibody titration, OD450-650
T3 construct: also called flt-4
T3 sequence (looked up): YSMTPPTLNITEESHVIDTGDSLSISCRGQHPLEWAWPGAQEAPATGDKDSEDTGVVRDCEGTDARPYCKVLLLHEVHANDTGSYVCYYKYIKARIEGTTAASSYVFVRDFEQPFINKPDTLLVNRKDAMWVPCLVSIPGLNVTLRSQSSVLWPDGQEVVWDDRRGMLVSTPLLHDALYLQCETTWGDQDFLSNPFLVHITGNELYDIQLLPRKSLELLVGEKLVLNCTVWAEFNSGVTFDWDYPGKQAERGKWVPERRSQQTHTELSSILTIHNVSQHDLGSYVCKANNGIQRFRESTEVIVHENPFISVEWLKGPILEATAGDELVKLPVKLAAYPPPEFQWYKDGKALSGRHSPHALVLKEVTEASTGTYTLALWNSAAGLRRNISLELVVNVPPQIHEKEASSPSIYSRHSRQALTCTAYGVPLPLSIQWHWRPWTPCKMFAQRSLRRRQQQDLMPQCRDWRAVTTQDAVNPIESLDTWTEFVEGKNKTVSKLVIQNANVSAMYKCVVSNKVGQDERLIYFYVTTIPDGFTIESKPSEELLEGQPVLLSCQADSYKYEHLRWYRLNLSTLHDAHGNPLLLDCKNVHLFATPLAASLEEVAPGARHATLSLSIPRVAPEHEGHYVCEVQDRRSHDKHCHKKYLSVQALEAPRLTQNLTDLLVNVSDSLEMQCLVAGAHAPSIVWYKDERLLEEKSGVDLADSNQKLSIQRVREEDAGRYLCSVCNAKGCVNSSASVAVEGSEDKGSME
Description: as §1

[3] = target: T1, human VEGFR-2 (domains 1 to 7); assay: ELISA and BIAcore; no numbers given

T1 sequence (P35968 20-764 Q472H limits assumed): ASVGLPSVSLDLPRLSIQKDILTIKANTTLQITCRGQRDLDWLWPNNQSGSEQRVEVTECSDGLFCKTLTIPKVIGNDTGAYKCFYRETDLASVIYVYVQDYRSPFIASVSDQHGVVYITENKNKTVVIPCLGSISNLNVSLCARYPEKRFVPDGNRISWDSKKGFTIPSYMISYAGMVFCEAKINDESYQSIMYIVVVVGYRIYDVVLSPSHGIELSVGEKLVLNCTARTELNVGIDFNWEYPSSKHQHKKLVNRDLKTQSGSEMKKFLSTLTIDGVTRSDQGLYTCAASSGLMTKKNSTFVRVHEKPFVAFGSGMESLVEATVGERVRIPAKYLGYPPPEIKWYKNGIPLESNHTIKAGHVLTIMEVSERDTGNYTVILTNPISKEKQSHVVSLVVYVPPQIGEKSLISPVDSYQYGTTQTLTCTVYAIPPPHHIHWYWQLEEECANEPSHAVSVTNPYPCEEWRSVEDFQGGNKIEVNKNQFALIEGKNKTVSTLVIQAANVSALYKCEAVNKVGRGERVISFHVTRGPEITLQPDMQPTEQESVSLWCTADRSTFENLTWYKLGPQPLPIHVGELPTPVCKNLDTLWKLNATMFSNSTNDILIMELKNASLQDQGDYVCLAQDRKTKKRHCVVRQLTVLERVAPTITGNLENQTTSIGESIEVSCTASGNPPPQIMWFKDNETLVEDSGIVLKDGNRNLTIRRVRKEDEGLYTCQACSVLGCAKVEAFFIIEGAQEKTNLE
Sequence of mouse VEGFR-2 (P35918 20-762 limits assumed): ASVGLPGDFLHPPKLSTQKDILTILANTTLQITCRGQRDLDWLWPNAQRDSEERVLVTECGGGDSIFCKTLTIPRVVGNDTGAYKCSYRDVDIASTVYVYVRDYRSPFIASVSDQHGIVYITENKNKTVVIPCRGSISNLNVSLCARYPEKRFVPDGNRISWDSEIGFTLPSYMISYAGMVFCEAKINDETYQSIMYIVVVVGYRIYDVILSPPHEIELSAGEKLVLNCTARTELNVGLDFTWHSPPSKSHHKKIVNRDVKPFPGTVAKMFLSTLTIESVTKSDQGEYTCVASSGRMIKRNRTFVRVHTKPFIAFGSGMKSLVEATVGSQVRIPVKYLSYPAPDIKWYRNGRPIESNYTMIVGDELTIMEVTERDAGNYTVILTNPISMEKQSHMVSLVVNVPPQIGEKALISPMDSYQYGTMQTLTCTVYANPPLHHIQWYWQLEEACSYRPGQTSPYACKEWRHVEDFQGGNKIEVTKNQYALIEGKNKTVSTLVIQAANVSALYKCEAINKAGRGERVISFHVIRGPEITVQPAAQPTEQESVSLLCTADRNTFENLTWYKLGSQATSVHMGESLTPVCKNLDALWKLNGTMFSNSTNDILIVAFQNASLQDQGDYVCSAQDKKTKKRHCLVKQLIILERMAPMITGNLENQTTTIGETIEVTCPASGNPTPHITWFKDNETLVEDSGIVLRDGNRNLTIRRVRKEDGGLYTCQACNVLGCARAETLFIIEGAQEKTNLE
T2 sequence (P17948 27-758 limits assumed): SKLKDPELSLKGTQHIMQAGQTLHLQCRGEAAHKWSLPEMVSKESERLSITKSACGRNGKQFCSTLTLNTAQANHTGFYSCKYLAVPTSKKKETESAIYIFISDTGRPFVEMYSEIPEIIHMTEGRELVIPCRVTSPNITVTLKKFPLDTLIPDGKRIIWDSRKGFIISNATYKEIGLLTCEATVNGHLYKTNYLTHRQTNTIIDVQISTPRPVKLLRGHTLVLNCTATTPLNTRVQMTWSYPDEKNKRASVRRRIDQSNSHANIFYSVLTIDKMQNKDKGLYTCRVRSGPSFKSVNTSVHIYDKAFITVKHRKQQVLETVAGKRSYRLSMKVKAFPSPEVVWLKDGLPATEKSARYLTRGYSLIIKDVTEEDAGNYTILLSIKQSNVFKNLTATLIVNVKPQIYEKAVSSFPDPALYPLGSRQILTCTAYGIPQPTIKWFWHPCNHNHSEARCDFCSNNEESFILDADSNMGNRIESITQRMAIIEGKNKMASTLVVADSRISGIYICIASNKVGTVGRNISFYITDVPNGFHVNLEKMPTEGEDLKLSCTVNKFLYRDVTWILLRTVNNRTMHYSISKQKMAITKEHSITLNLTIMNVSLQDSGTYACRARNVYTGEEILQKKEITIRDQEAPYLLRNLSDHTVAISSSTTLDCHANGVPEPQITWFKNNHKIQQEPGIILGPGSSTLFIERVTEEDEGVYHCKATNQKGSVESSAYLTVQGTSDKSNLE

binding result (mouse VEGFR-2): binds
EC50 (read off the curve) [1]: ~5 ng/mL
Kd [2]: 0.673 nM
binding result (human VEGFR-3): no binding (tested: about 1.3e-7 M)
B1: 322A6 (antibody, V domains shown)
VH: EVQLQQSGPQLVRPGASAKISCKASGYAFTTYWMHWVKQRPGQGLEWIGMIDFSDSETKLNQRFKGKATLTVDKSSSTAYMQLSSPTSEDSAVYYCARDVRGNFDVWGAGTTVTVSS
VL: DIVLTQSPASLAVSLGQRATISCRASKSVSTSGYSYMHWYQQKPGQPPKLLIYLASNLESGVPARFSGSGSGTDFTLNIHPVEEEDAATYYCQHSRELPWTFGGGTKLEIKR
notes: Expressed as a full-length antibody in FreeStyle 293 cells from mouse-derived VH and VL; It was detected with anti-human IgG and anti-human kappa; also called 322A6 (45); c45
binding result (human VEGFR-1): no binding (tested: 20 µg/mL (about 1.3e-7 M))

binding result (mouse VEGFR-2): no binding
Kd [2]: 4.6 nM
B2: 12A6 (antibody, V domains shown)
VH: QVQLQQSGPELVKPGASVKVSCKASGYSFTDYSMYWVKQSHGKSLEWIGYIDPYNDDTSYKQKFKGKATLTVDKSSSTAFMHLNSLTSEDSAVYYCAKGYADAMDYWGQGTSVTVSS
VL: DIQMIQSPSSLSASLGDTITITCHASQNINVWLSWYQQKPGNIPKLLIYKASNLHTGVPSRFSGSGSGTGFTLTISSLQPEDIATYYCQQGQSYPLTFGAGTKLELKR
notes: Expressed as a full-length antibody in FreeStyle 293 cells and detected with anti-human IgG

binding result [3]: binds
B3: Hu322B1HdH (antibody, V domains shown)
VH: QVQLVQSGAEVKKPGASVKVSCKASGYAFTTYWMHWVRQAPGQGLEWIGMIDFSDSETKLNQRFKGKATLTVDKSTSTAYMELSSLRSEDTAVYYCARDVRGNFDVWGQGTLVTVSS
VL: DIQMTQSPSSLSASVGDRVTITCRASKSVSTSGYSYMHWYQQKPGKAPKLLIYLASNLESGVPSRFSGSGSGTDFTLTISSLQPEDFATYYCQHSRELPWTFGQGTKVEIKR
notes: Humanized 322A6; The expression vector encodes the human kappa light-chain and human IgG1 C regions; also called 322A6(HuB1-Hd); combination clone of heavy chain (HuB1) and light chain (Hd) with 7 amino acid back mutation (7+0)
